{
  "source": "paper PMC9633295",
  "about": "(Cancer Science, 2022)",
  "key": {"[1]": {"molecular_target": "T1, recombinant human CD155-Fc fusion protein, WT (human, UniProt P15151 21-343)", "T1 sequence (looked up)": "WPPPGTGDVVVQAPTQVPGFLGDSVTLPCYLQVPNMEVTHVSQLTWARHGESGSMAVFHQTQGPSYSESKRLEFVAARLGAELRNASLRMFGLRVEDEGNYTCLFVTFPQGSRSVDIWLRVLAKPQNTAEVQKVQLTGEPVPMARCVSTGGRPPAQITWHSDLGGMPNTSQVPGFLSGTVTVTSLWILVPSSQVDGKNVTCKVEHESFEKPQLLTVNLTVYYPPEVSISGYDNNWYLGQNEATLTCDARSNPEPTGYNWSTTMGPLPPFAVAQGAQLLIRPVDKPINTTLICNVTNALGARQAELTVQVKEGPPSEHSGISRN", "experiment": "BLI"}, "[2]": {"molecular_target": "T2, recombinant human CD155-Fc fusion protein, mutant (Ala67Thr) (human, UniProt P15151 21-343, Ala67Thr)", "T2 sequence (looked up)": "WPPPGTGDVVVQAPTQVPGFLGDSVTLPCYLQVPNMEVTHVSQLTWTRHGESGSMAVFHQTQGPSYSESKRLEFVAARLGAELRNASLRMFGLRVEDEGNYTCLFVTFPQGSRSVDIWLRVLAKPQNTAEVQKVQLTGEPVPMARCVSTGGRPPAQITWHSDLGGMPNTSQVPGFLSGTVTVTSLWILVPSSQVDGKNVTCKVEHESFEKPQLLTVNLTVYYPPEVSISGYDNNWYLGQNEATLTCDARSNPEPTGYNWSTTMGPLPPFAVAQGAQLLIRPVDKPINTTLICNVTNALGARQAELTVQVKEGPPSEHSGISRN", "experiment": "BLI"}},
  "data": [
    {"binder": "His-tagged recombinant human DNAM-1 (receptor, UniProt Q15762 19-254, looked up) EEVLWHTSVPFAENMSLECVYPSMGILTQVEWFKIGTQQDSIAIFSPTHGMVIRKPYAERVYFLNSTMASNNMTLFFRNASEDDVGYYSCSLYTYPQGTWQKVIQVVQSDSFEAAVPSNSHIVSEPGKNVTLTCQPQMTWPVQAVRWEKIQPRQIDLLTYCNLVHGRNFTSKFPRQIVSNCSHGRWSVIVIPDVTVSDSGLYRCYLQASAGENETFVMRLTVAEGKTDNQYTLFVA", "values": [
      {"measurement": "binding result", "setting": "[1]", "result": "binds"},
      {"measurement": "binding result", "setting": "[2]", "result": "binds"}
    ]}
  ]
}
